The source of these data is patent US7741066B2, “Phosphorylated p68 RNA helicase as a marker for cancer and cancer metastasis” (priority 2005, dated 2010).

Series [1] has as its system p68 RNA helicase tyrosine phosphorylation. Briefly: Tyrosyl phosphorylation of p68 RNA helicase in cancer cells after treatment (immunoprecipitation with PAbp68, Western Blot with p-tyr-100). It is filed as cell-based, human. A general note: In western blotting, separated proteins are transferred to a membrane and probed.
Source text: After the tissue samples were homogenized, the protein extracts were made from the homogenized sample. The tissue was screened for phosphorylated p68 RNA helicase in two steps. In the first step, the polyclonal antibody PAbp68 was used to isolate p68 RNA helicase from the extracts. In the second step, the antibody p-tyr-100 was used to detect the phosphorylated p68 RNA helicase from the total isolated p68 RNA helicase by the Western Blot. The intensity of the Western Blot signal by the antibody p-tyr-100, in the second step, corresponds to the level of phosphorylated p68 RNA helicase in the sample.
The Western Blots were carried out using antibody p68-rgg (top panel in FIG. 3A-3D) and antibody p-tyr-100 (bottom panel in FIGS. 3A-3D). The p68 RNA helicase was immunoprecipitated by antibody PAbp68.
Series [2] has as its system p68 RNA helicase threonine phosphorylation. As to the kind of experiment: Threonine phosphorylation of p68 RNA helicase in cancer cells after treatment (immunoprecipitation, Western Blot with 14B3). It is filed as cell-based, human. Particulars: for threonine phosphorylation of p68 RNA helicase upon treatment: six different cancer cell lines, Western Blot 14B3; for threonine phosphorylation of p68 RNA helicase upon longer treatment: 30 minutes treatment, data not shown. On the procedure:
The presence of phosphorylated p68 RNA helicase in cultured cells or tissue samples was examined using immunoprecipitation followed by Western Blots. Immunoblotting also was also performed with a monoclonal antibody against p68 RNA helicase to show the equal amounts or levels of p68 (phosphorylated and unphosphorylated) loaded in the western blotting. Such Western Blots include the use of antibodies to phosphorylated p68 RNA helicase and sodium dodecyl sulphate polyacrylamide gel electrophoresis (SDS-PAGE). Immunoblotting also was performed with a monoclonal antibody against p68 RNA helicase to show the presence of a positive control protein in tumor and normal samples and to indicate that there was no evidence of protein degradation in any of the tissue samples.
A polyacrylamide gel system was employed for separation of proteins. The cell nuclear extracts (80 μl) were diluted to 200 μl with RIPA buffer (160 mM NaCl, 20 mM Tris-HCl, pH 7.5, 1 mM EDTA, 1 mM EGTA, 1 mM DTT, 0.1% Triton X-100, 1% sodium deoxycholate, 0.1% SDS, 1 mM sodium vanadate, and 1 mM PMSF). The antibody PAbp68 then was added to the mixture. The solution subsequently was incubated at 4° C. for 4 hours. Protein A agarose bead slurry (40 μl) then was added and the mixture underwent rotation. The beads were recovered and washed with 5×600 μl RIPA buffer with 0.08% SDS. The precipitated proteins were analyzed by SDS-PAGE followed by Western Blot.
The Western Blot analysis was performed with a commercially available ECL Western Blot and detection kit (Amersham Biosciences). The supernatant from the culture medium of hybridoma cells P68-rgg were used in the blotting experiments at a 5:1 dilution. The polyclonal antibody PAbp68 was used in 1:3000 dilution. The antibodies, PY100 and 14B3 were used with 1:2000 dilution.
The phosphorylation of p68 RNA helicase was investigated using HeLA S3, A549, HEL299, CCD-112CoN, HepG2, and MCF-7 cells. The HeLa S3 and A549 cells were grown in Ham's F12K medium supplemented with 10% fetal bovine serum. The HEL299, CCD-112CoN, HepG2, and MCF-7 cells were maintained in minimum essential medium supplemented with 10% fetal bovine serum. The culture medium contained 2 mM L-glutamine and Earle's BSS adjusted to contain 1.5 g/l of sodium bicarbonate, 0.1 mM of non-essential amino acids, and 1.0 mM sodium pyruvate. The Caco-2 cells were grown in a similar medium condition to that of HEL299 cells but supplemented with 20% fetal bovine serum. The RPMI 1788 and K562 cells were grown in Iscove's modified Dulbecco's medium supplemented with 10% fetal bovine serum. The HEK293 and Hs 578Bst cells were grown in modified Dulbecco's medium containing 10% fetal bovine serum. All cell culture medium contained penicillin (100 U/ml) and streptomycin (100 μg/ml). The cells were grown to 90% confluency prior to performing any experiment.
The phosphorylations of p68 RNA helicase responded differently to different anticancer treatments.
FIGS. 2A and 2B show Western Blots of immunoprecipitated cellular p68 RNA helicase from different cancer cells (indicated). The immuno-blots were carried out using antibody p68-rgg (FIG. 2, top panel in A and B), antibody p-tyr-100 (middle panel in A and B), and antibody 14B3 (FIG. 2, bottom panel in A and B). The + and − represent with or without TNF-α or TRAIL treatments. Tyrosine dephosphorylation and threonine phosphorylation of p68 RNA helicase was present in cancer cells upon the panel (A) TNF-α or panel (B) TRAIL treatments.

Where [3] appears, read: six different cancer cell lines (A549, Caco-2, HepG2, K562, MCF-7, HeLa S3), Western Blot p-tyr-100.

In the case of `CC(=O)O[C@H]1C(=O)[C@@]2(C)[C@H]([C@H](OC(=O)c3ccccc3)[C@]3(O)C[C@H](OC(=O)[C@H](O)[C@@H](NC(=O)c4ccccc4)c4ccccc4)C(C)=C1C3(C)C)[C@]1(OC(C)=O)CO[C@@H]1C[C@@H]2O` [TAXOL®, reference compound], in series [1] (setting [3]), the “tyrosine phosphorylation of p68 RNA helicase upon treatment” value (“tyrosine phosphorylation” below) is on record as “tyrosyl dephosphorylation was not observed”. The “threonine phosphorylation of p68 RNA helicase upon treatment” value in series [2] is recorded as “Threonine phosphorylation was not detected”.
“TRAIL: TNF Related Apoptosis-Inducer Ligand”: in series [1] (setting [3]), the “tyrosine phosphorylation” value is “led to the dephosphorylation of p68 at tyrosine residue(s)”. In addition, in series [2], the “threonine phosphorylation of p68 RNA helicase upon longer treatment” value is reported as “quickly dephosphorylated again” and the “threonine phosphorylation of p68 RNA helicase upon treatment” value is “resulted in phosphorylation of p68 at threonine”.
On to `COc1cc([C@@H]2c3cc4c(cc3[C@@H](O[C@@H]3O[C@@H]5CO[C@@H](C)O[C@H]5[C@H](O)[C@H]3O)[C@H]3COC(=O)[C@H]23)OCO4)cc(OC)c1O` [etoposide, reference compound], for which the “tyrosine phosphorylation” value in series [1] (setting [3]) is reported as “tyrosyl dephosphorylation was not observed”. Besides, in series [2], the “threonine phosphorylation of p68 RNA helicase upon treatment” value is reported as “Threonine phosphorylation was not detected”.
Regarding TNF-α, the “tyrosyl phosphorylation of p68 RNA helicase upon treatment” value in series [1] (HeLa cells) is “could be dephosphorylated”. Besides, the “tyrosine phosphorylation” value in series [1] (setting [3]) is “led to the dephosphorylation of p68 at tyrosine residue(s)”. For the same molecule, in series [2], the “threonine phosphorylation of p68 RNA helicase upon longer treatment” value is “quickly dephosphorylated again” and the “threonine phosphorylation of p68 RNA helicase upon treatment” value was “resulted in phosphorylation of p68 at threonine”.
In the case of `Cc1ccc(NC(=O)c2ccc(CN3CCN(C)CC3)cc2)cc1Nc1nccc(-c2cccnc2)n1` [STI-571, reference compound], in series [1] (MCF-7 breast cancer cells), the “tyrosine phosphorylation” value is given as “decreases in the tyrosine phosphorylation level rather than complete dephosphorylation”.
